According to the RNAGym collection of RNA variant scans (doi:10.7554/elife.80360):

B1: CPEB3 Ribozyme (parent)
chain: GGGGGCCACAGCAGAAGCGUUCACGUCGCGGCCCCUGUCAGAUUCUGGUGAAUCUGCGAAUUCUGCUGU

Variants of: B1
Experiment: self-cleavage, relative activity (ratio to wild type); higher = more cleavage; co-transcriptional

| Variant | self-cleavage |
| --- | --- |
| GGAGGCCACAGCAGAAGCGUUCACGUCGCGGCCCCUGUCAGAUUCUGGUGAAUCUGCGAAUUCUACUGU | 0.527 |
| GGAGGCCACAGCAGAAGCGUUCACGUCGCGGCCCCUGUCAGAUUCUGGUGAAUCUGCGAAUUCUUCUGU | 0.285 |
| GGAGGCCACAGCAGAAGCGUUCACGUCGCGGCCCCUGUCAGAUUCUGGUGAAUCUGCGAAUUCUGCUAU | 0.852 |
| GGAGGCCACAGCAGAAGCGUUCACGUCGCGGCCCCUGUCAGAUUCUGGUGAAUCUGCGAAUUCUGCUCU | 0.764 |
| GGAGGCCACAGCAGAAGCGUUCACGUCGCGGCCCCUGUCAGAUUCUGGUGAAUCUGCGAAUUCUGCUUU | 0.86 |
| GGAGGCCACAGCAGAAGCGAUCACGUCGCGGCCCCUGUCAGAUUCUGGUGAAUCUGCGAAUUCUGCUGU | 0.0708 |
| GGAGGCCACAGCAGAAGCGUACACGUCGCGGCCCCUGUCAGAUUCUGGUGAAUCUGCGAAUUCUGCUGU | 0.455 |
| GGAGGCCACAGCAGAAGCGUCCACGUCGCGGCCCCUGUCAGAUUCUGGUGAAUCUGCGAAUUCUGCUGU | 0.371 |
| GGAGGCCACAGCAGAAGCGUGCACGUCGCGGCCCCUGUCAGAUUCUGGUGAAUCUGCGAAUUCUGCUGU | 0.129 |
| GGAGGCCACAGCAGAAGCGUUCACGACGCGGCCCCUGUCAGAUUCUGGUGAAUCUGCGAAUUCUGCUGU | 0.187 |
| GGAGGCCACAGCAGAAGCGUUCACGGCGCGGCCCCUGUCAGAUUCUGGUGAAUCUGCGAAUUCUGCUGU | 0.29 |
| GGAGGCCACAGCAGAAGCGUUCACGUCGCGGCCCCUGGCAGAUUCUGGUGAAUCUGCGAAUUCUGCUGU | 0.113 |
| GGAGGCCACAGCAGAAGCGUUCACGUCGCGGCCCCUGUCAGAUACUGGUGAAUCUGCGAAUUCUGCUGU | 0.54 |
| GGAGGCCACAGCAGAAGCGUUCACGUCGCGGCCCCUGUCAGAUCCUGGUGAAUCUGCGAAUUCUGCUGU | 0.474 |
| GGAGGCCACAGCAGAAGCGUUCACGUCGCGGCCCCUGUCAGAUGCUGGUGAAUCUGCGAAUUCUGCUGU | 0.331 |
| GGAGGCCACAGCAGAAGCGUUCACGUCGCGGCCCCUGUCAGAUUCGGGUGAAUCUGCGAAUUCUGCUGU | 0.688 |
| GGAGGCCACAGCAGAAGCGUUCACGUCGCGGCCCCUGUCAGAUUCUGGAGAAUCUGCGAAUUCUGCUGU | 0.627 |
| GGAGGCCACAGCAGAAGCGUUCACGUCGCGGCCCCUGUCAGAUUCUGGGGAAUCUGCGAAUUCUGCUGU | 0.392 |
| GGAGGCCACAGCAGAAGCGUUCACGUCGCGGCCCCUGUCAGAUUCUGGUGAACCUGCGAAUUCUGCUGU | 0.416 |
| GGAGGCCACAGCAGAAGCGUUCACGUCGCGGCCCCUGUCAGAUUCUGGUGAAGCUGCGAAUUCUGCUGU | 0.284 |

| Variant | self-cleavage |
| --- | --- |
| GGAGGCCACAGCAGAAGCGUUCACGUCGCGGCCCCUGUCAGAUUCUGGUGAAUCCGCGAAUUCUGCUGU | 0.187 |
| GGAGGCCACAGCAGAAGCGUUCACGUCGCGGCCCCUGUCAGAUUCUGGUGAAUCGGCGAAUUCUGCUGU | 0.291 |
| GGAGGCCACAGCAGAAGCGUUCACGUCGCGGCCCCUGUCAGAUUCUGGUGAAUCUGCGAAAUCUGCUGU | 0.269 |
| GGAGGCCACAGCAGAAGCGUUCACGUCGCGGCCCCUGUCAGAUUCUGGUGAAUCUGCGAACUCUGCUGU | 0.246 |
| GGAGGCCACAGCAGAAGCGUUCACGUCGCGGCCCCUGUCAGAUUCUGGUGAAUCUGCGAAUACUGCUGU | 0.312 |
| GGAGGCCACAGCAGAAGCGUUCACGUCGCGGCCCCUGUCAGAUUCUGGUGAAUCUGCGAAUCCUGCUGU | 0.357 |
| GGAGGCCACAGCAGAAGCGUUCACGUCGCGGCCCCUGUCAGAUUCUGGUGAAUCUGCGAAUGCUGCUGU | 0.392 |
| GGAGGCCACAGCAGAAGCGUUCACGUCGCGGCCCCUGUCAGAUUCUGGUGAAUCUGCGAAUUCUGCCGU | 0.819 |
| GGAGGCCACAGCAGAAGCGUUCACGUCGCGGCCCCUGUCAGAUUCUGGUGAAUCUGCGAAUUCUGCGGU | 0.818 |
| GGAGGCCACAGCAGAAGCGUUCACGUCGCGGCCCCUGUCAGAUUCUGGUGAAUCUGCGAAUUCUGCUGA | 0.847 |
| GGAGGCCACAGCAGAAGCGUUCACGUCGCGGCCCCUGUCAGAUUCUGGUGAAUCUGCGAAUUCUGCUGG | 0.793 |
| GGCGGCCACAGCAGAAGCGUUCACGUCGCGGCCCCUGUCAGAUUCUGGUGAAUCUGCGAAUUCUGCUGU | 0.147 |
| GGCGGCCCCAGCAGAAGCGUUCACGUCGCGGCCCCUGUCAGAUUCUGGUGAAUCUGCGAAUUCUGCUGU | 0.0756 |
| GGCGGCCGCAGCAGAAGCGUUCACGUCGCGGCCCCUGUCAGAUUCUGGUGAAUCUGCGAAUUCUGCUGU | 0.0364 |
| GGCGGCCUCAGCAGAAGCGUUCACGUCGCGGCCCCUGUCAGAUUCUGGUGAAUCUGCGAAUUCUGCUGU | 0.123 |
| GGCGGCCACCGCAGAAGCGUUCACGUCGCGGCCCCUGUCAGAUUCUGGUGAAUCUGCGAAUUCUGCUGU | 0.175 |
| GGCGGCCACGGCAGAAGCGUUCACGUCGCGGCCCCUGUCAGAUUCUGGUGAAUCUGCGAAUUCUGCUGU | 0.215 |
| GGCGGCCACAGCCGAAGCGUUCACGUCGCGGCCCCUGUCAGAUUCUGGUGAAUCUGCGAAUUCUGCUGU | 0.0417 |
| GGCGGCCACAGCUGAAGCGUUCACGUCGCGGCCCCUGUCAGAUUCUGGUGAAUCUGCGAAUUCUGCUGU | 0.0542 |
